Measured values reported in US20250057968A1, “ANTI-DLL3 ANTIBODY AND PHARMACEUTICAL USE THEREOF, AND ANTIBODY-DRUG CONJUGATE CONTAINING ANTI-DLL3 ANTIBODY” (Jiangsu Hengrui Pharmaceuticals Co., Ltd., priority 2021, published 2025).

T1: Human DLL1 full-length protein on CHO-s cells (human, UniProt O00548 18-723)
T1 construct: also called human DLL1/CHO-s
T1 sequence: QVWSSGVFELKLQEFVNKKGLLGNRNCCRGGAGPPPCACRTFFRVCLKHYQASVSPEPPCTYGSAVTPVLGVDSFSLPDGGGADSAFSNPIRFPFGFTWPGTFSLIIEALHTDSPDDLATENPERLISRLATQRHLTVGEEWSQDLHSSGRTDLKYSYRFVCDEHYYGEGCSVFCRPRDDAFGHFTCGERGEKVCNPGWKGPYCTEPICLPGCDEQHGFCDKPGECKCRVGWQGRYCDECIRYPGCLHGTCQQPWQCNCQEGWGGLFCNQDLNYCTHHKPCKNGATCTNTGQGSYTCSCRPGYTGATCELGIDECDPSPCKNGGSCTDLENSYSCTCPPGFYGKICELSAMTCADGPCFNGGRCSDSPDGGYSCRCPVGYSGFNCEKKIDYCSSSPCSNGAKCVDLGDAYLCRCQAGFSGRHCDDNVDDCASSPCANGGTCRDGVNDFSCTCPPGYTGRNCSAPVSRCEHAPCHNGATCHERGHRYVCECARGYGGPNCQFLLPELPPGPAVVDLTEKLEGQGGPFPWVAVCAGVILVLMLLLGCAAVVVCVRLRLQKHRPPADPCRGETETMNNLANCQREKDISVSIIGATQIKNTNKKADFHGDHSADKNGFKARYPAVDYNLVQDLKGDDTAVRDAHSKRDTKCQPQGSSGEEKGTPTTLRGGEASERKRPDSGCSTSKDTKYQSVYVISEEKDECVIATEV

T2: mouse DLL3 (KACTUS, DLL-MM103) (mouse, UniProt O88516 33-490, limits assumed)
T2 construct: bought antigen of the Biacore assay; construct not described
T2 sequence (looked up): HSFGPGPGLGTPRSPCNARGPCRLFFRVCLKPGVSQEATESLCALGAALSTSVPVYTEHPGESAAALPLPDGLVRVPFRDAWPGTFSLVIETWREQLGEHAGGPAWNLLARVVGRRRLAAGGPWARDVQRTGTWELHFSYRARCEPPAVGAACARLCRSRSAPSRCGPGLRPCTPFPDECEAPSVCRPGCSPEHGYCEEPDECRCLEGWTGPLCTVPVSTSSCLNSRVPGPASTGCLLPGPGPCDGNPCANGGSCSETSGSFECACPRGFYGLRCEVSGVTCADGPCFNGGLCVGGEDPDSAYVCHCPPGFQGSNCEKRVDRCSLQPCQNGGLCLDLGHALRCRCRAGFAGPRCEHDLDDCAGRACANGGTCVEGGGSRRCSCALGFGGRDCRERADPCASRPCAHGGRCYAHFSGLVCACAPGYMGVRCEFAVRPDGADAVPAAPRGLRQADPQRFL

T3: human DLL3 (ACRO, DLL3-H52H4) (human, UniProt Q9NYJ7 27-479)
T3 construct: bought antigen of the Biacore assay; construct not described
T3 sequence (looked up): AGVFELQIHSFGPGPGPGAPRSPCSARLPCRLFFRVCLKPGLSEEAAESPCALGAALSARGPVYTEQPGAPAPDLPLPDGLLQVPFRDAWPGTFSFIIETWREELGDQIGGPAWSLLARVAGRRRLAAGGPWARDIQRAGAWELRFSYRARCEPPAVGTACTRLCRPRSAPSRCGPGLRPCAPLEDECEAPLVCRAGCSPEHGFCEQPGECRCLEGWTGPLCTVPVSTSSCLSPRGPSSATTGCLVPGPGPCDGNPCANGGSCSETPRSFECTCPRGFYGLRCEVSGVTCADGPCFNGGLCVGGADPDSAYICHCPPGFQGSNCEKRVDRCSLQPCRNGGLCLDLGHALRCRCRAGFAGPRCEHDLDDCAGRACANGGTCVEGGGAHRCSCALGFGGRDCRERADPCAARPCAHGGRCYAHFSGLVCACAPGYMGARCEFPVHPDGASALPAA

B1: Hu6 (antibody, human IgG1, kappa, V domains shown)
VH: EVQLVQSGSELKKPGASVKVSCKASGYTFTDYYMNWVRQAPGQGLEWMGIINPYSGVTIYNHKFKGRFALSVDKSSNTAYLQISSLKAEDTAVYYCARQDSLLDYAMDYWGQGTTVTVSS
VL: DIQMTQSPSSLSASVGDRVTITCHASQGISGNMGWLQQKPGKAPKGLIYHGANLEDGVPSRFSGSGSGADYTLTISSLQPEDFADYYCVQYAQFPYTFGGGTKVEIKR
notes: also called hAb6L4H12
B2: Hu100 (antibody, human IgG1, kappa, V domains shown)
VH: EVQLVESGGGLVKPGGSLRLSCAASGFTFSDSGMHWIRQAPGKGLEWVSYISSGSSTIHYADTVKGRFTISRDNAKNSLYLQMNSLRAEDTAVYYCASPLYYYGRSYNAVAYWGQGTTVTVSS
VL: DIQMTQSPSSLSASVGDRVTITCHASQNINVWLSWYQQKPGKVPKLLIYKASDLHTGVPSRFSGSGSGTDFTLTISSLQPEDVATYYCQQGQSYPLTFGGGTKVEIKR
notes: also called hAb100L1H1

Assays:
[1] = biological target: T1, Human DLL1 full-length protein on CHO-s …; assay: FACS on human DLL1/CHO-s cells
Procedure: Stably transfected human DLL1/CHO-s and human DLL4/CHO-s cells were suspended at 1×10⁶/mL in FACS buffer (containing 1% BSA and pH 7.4 PBS), and the cell suspensions were added to a 96-well round-bottom plate (Corning, 3795) at 100 µL/well. The plate was centrifuged at 300 g for 5 min, and the supernatant was removed. Test antibodies were added at 100 μL/well, and the plate was incubated in the dark in a refrigerator at 4° C. for 1 h. After 3 washes by centrifugation at 300 g, working concentrations of PE F(ab′)2-goat anti-human IgG Fc secondary antibody (invitrogen, H10104) were added. The plate was incubated in the dark in a refrigerator at 4° C. for 40 min. After 3 washes by centrifugation at 300 g, the geometric mean fluorescence intensity was measured on an Invitrogen flow cytometer.

[2] = biological target: T2, mouse DLL3 (KACTUS, DLL-MM103); assay: SPR (Biacore 8K), antibody captured on Protein A chip, 1:1 fit
Excerpt: (§1) Test antibodies were affinity-captured with a Protein A biosensor chip (Cat. #29127556, Cytiva) for 18 seconds, and then the antigens human DLL3 (ACRO, DLL3-H52H4), cynomolgus monkey DLL3 (KACTUS, DLL-RM103), and mouse DLL3 (KACTUS, DLL-MM103) were allowed to flow over the surface of the chip for 180 seconds, followed by 600 seconds of dissociation. Reaction signals were detected in real time using a Biacore 8K (Cytiva) instrument to obtain association and dissociation curves. After the dissociation in each experimental cycle, the biosensor chip was washed and regenerated with a 10 mM glycine-hydrochloric acid solution (pH 1.5) (Cat. #BR-1003-54, Cytiva). A 1:1 model was fit to the data. The results are shown in Table 12-1, Table 12-2, and Table 12-3.

[3] = biological target: T3, human DLL3 (ACRO, DLL3-H52H4); assay: as above
Excerpt: as §1

[4] = biological target: T2, mouse DLL3 (KACTUS, DLL-MM103); assay: SPR (Biacore 8K), antibody captured on Protein A chip
Excerpt: as §1

| Binder | binding result [1] | Kd [2] | Kd [3] | koff [3] | kon [3] | binding result [4] |
| --- | --- | --- | --- | --- | --- | --- |
| B1 | no binding | 6.52 nM | – | – | – | – |
| B2 | no binding | – | 0.436 nM | 0.000374 s⁻¹ | 858000 M⁻¹ s⁻¹ | no binding |
